The results in this text go back to article PMC5940305, “The Rab11-binding protein RELCH/KIAA1468 controls intracellular cholesterol distribution” (The Journal of Cell Biology, 2018).

The target in one test is T1, OSBP (Homo sapiens, UniProt P22059).
T1 construct: full-length, Flag-tagged, tag kept; 807 residues (deletion series ends at 807)
As to the kind of experiment: liposome sterol transfer, DHE to dansyl-PE FRET. In kind it is biochemical. The settings on record: lipid transfer substrate (not catalysis); with RELCH, Rab11a(Q70A)-His/GTP and myristoylated Arf1(Q71L)-Flag; RE-like donor and Golgi-like PI4P acceptor liposomes; 200 nM OSBP; pH 7.2; room temperatur.

The target of test [1] is T2, His-RELCH (mouse, UniProt Q148V7 1-1216).
T2 construct: RELCH/KIAA1468, mouse, cDNA NM_173187.3 amplified from a mouse embryo cDNA library; no limits are stated for this construct (deletion constructs are named by their ranges); also called purified recombinant RELCH; His-RELCH protein; source: E. coli XL-1 blue (pQE32tev), purified (Ni-NTA agarose); not shown: His, N-terminal, kept
T2 sequence (looked up): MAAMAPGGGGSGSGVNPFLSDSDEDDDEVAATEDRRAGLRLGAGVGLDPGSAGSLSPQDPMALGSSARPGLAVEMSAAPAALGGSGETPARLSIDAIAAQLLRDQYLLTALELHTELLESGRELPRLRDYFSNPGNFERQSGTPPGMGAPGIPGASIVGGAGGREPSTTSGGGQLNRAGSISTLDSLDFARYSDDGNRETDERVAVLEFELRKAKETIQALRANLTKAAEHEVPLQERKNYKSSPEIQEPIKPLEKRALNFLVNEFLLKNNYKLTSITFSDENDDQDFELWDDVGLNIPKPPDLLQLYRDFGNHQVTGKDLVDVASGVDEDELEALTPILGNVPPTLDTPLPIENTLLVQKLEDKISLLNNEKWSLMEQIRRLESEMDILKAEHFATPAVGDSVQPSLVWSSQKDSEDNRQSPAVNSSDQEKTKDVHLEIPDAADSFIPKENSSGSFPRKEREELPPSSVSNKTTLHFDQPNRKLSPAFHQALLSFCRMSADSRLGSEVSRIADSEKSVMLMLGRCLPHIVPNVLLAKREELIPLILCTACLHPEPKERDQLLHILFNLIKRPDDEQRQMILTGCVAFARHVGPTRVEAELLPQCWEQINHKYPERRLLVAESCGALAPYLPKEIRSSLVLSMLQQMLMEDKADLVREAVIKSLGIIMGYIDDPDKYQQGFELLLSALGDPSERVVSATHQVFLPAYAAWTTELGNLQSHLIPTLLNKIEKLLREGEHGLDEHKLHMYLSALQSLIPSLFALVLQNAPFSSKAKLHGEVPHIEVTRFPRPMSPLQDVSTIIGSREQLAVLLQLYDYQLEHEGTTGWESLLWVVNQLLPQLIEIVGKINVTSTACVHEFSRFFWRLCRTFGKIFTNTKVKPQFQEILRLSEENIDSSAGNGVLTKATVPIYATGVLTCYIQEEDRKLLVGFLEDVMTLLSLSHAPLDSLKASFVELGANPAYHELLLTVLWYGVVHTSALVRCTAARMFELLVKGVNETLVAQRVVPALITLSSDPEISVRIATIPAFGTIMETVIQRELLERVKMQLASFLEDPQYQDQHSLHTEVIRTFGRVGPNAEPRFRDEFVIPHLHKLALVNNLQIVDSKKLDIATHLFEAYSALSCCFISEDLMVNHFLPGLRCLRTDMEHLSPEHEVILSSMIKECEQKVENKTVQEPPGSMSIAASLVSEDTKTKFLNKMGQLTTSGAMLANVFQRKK
Put plainly: pull-down; 0.5 µg His-RELCH on Ni-NTA beads, 0.5 µg Flag-OSBP in 20 mM Hepes-NaOH pH 7.5, 100 mM NaCl, 5 mM MgCl2 with ethanol, cholesterol or 25-OH, 1 h at 4°C; immunoblot with His and Flag antibodies. The conditions noted are these: both partners purified. Background: In western blotting, separated proteins are transferred to a membrane and probed.

The target in test [2] is T3, GST-RELCH_(497-779) (Rab-binding domain) (mouse, UniProt Q148V7 497-779).
T3 construct: also called GST-RELCH (RBD); source: E. coli Rosetta II (pFAT2), purified (Ni-NTA agarose); not shown: GST, N-terminal, kept
T3 sequence (looked up): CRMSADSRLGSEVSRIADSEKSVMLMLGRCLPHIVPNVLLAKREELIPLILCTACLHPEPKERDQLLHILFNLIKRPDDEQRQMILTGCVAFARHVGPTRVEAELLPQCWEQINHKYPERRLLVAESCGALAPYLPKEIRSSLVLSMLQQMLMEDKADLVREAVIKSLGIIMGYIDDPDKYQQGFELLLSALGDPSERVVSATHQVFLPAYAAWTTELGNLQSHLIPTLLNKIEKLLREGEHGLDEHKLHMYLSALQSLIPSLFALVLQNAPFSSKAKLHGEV
As to the kind of experiment: pull-down; 10 µg GST-RELCH (RBD) on 20 µl Glutathione Sepharose 4B, 10 µg Rab11a (Q70A)-His loaded with GTP in 500 µl; immunoblot with Rab11 and GST antibodies. The conditions noted are these: both partners purified.

In a further test the target is T4, untagged RELCH (mouse, UniProt Q148V7 1-1216).
T4 construct: RELCH/KIAA1468, mouse, cDNA NM_173187.3, with an N-terminal PreScission protease recognition site; no limits are stated; Residues of the PreScission site may be left at the N-terminus after cleavage; source: E. coli XL-1 blue (pQE32), purified (Ni-NTA agarose), His tag removed with PreScission protease; not shown: His, N-terminal, cleaved
T4 sequence (looked up): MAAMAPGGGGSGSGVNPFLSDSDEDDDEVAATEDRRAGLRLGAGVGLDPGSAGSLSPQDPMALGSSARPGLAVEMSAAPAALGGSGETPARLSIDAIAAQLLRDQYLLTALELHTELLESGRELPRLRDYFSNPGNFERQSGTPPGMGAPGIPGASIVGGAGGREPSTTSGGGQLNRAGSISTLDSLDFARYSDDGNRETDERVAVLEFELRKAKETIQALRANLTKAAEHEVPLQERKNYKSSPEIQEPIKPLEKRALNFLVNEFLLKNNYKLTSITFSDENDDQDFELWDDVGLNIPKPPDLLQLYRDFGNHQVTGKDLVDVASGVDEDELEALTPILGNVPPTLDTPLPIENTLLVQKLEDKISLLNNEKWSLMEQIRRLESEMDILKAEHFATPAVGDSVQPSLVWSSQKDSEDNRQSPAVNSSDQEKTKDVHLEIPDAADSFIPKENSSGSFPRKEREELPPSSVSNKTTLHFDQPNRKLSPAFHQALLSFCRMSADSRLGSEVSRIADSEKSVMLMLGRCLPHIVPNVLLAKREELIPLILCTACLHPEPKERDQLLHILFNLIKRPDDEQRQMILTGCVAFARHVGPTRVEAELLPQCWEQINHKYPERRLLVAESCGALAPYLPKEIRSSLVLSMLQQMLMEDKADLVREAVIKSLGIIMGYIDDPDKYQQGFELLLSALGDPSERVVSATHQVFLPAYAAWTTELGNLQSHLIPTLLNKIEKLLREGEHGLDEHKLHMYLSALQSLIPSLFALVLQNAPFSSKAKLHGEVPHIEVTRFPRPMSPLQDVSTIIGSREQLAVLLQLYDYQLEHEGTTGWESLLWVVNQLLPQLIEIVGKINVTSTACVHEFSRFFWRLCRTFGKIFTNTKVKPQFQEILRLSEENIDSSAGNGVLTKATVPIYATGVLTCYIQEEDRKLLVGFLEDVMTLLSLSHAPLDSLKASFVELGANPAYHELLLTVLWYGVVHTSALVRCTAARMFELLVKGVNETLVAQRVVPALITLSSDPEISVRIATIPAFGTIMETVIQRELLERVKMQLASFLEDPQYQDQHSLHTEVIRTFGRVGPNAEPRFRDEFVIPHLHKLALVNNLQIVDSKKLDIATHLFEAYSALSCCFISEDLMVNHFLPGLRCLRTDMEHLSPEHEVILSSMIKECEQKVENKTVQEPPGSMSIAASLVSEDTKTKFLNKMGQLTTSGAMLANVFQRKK
As to the kind of experiment: silica bead-based liposome binding assay; silica beads coated with RE-like liposomes (DOGS-NTA(Ni), Rho-PE) prebound with 5 µM Rab11a (Q70A)-His, then 200 nM untagged RELCH, 30 min at 4°C in HKM buffer with 1 mM GTP and BSA; stained with Rab11 or RELCH antibodies. The conditions noted are these: both partners purified.

The target in test [3] is T2, His-RELCH. Put plainly: pull-down; 10 µg GST-Rab11a Q70A (GTP) on 20 µl Glutathione Sepharose 4B, 20 µg His-RELCH in 500 µl; immunoblot with RELCH and GST antibodies. The conditions noted are these: both partners purified.

T1 sequence (P84077 2-181 Q71L partner, one chain of several): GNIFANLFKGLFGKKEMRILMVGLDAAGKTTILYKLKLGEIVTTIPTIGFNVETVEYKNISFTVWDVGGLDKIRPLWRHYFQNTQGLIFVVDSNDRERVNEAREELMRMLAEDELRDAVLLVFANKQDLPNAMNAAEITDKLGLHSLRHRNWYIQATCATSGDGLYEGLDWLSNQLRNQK

As for `CC(C)[C@@H](C)/C=C/[C@@H](C)[C@H]1CC[C@H]2C3=CC=C4C[C@@H](O)CC[C@]4(C)C3=CC[C@]12C` [DHE, dehydroergosterol], the “liposome sterol transfer, DHE to dansyl-PE FRET” value on OSBP was “the DHE transfer occurred in a RELCH dose-dependent manner”.

B1: Flag-OSBP, full length (natural protein, human, UniProt P22059 1-807, looked up)
chain: MAATELRGVVGPGPAAIAALGGGGAGPPVVGGGGGRGDAGPGSGAASGTVVAAAAGGPGPGAGGVAAAGPAPAPPTGGSGGSGAGGSGSAREGWLFKWTNYIKGYQRRWFVLSNGLLSYYRSKAEMRHTCRGTINLATANITVEDSCNFIISNGGAQTYHLKASSEVERQRWVTALELAKAKAVKMLAESDESGDEESVSQTDKTELQNTLRTLSSKVEDLSTCNDLIAKHGTALQRSLSELESLKLPAESNEKIKQVNERATLFRITSNAMINACRDFLMLAQTHSKKWQKSLQYERDQRIRLEETLEQLAKQHNHLERAFRGATVLPANTPGNVGSGKDQCCSGKGDMSDEDDENEFFDAPEIITMPENLGHKRTGSNISGASSDISLDEQYKHQLEETKKEKRTRIPYKPNYSLNLWSIMKNCIGKELSKIPMPVNFNEPLSMLQRLTEDLEYHELLDRAAKCENSLEQLCYVAAFTVSSYSTTVFRTSKPFNPLLGETFELDRLEENGYRSLCEQVSHHPPAAAHHAESKNGWTLRQEIKITSKFRGKYLSIMPLGTIHCIFHATGHHYTWKKVTTTVHNIIVGKLWIDQSGEIDIVNHKTGDKCNLKFVPYSYFSRDVARKVTGEVTDPSGKVHFALLGTWDEKMECFKVQPVIGENGGDARQRGHEAEESRVMLWKRNPLPKNAENMYYFSELALTLNAWESGTAPTDSRLRPDQRLMENGRWDEANAEKQRLEEKQRLSRKKREAEAMKATEDGTPYDPYKALWFERKKDPVTKELTHIYRGEYWECKEKQDWSSCPDIF
notes: OSBP, human, amplified from pOTB7-OSBP, in pcDNA5/FRT/TO-Flag; also called Flag-tagged OSBP; source: HEK293FT, transfected, in lysate; Flp-In–293, transfected, in lysate; not shown: Flag, N-terminal, kept
Regarding B1, in the test with His-RELCH [1], the binding result is reported as “binds”.

B2: Rab11a (Q70A)-His, loaded with GTP (natural protein, mouse, UniProt P62492 1-216, looked up)
chain: MGTRDDEYDYLFKVVLIGDSGVGKSNLLSRFTRNEFNLESKSTIGVEFATRSIQVDGKTIKAQIWDTAGAERYRAITSAYYRGAVGALLVYDIAKHLTYENVERWLKELRDHADSNIVIMLVGNKSDLRHLRAVPTDEARAFAEKNGLSFIETSALDSTNVEAAFQTILTEIYRIVSQKQMSDRRENDMSPSNNVVPIHVPPTTENKPKVQCCQNI
notes: Rab11a, mouse, GTP-locked mutant Q70A, cloned without a stop codon into pET28c; Loaded with GTP in the assays; on liposomes it is held through its His tag by DOGS-NTA(Ni); also called His6×-tagged Rab11a-GTP; Rab11a-GTP; source: E. coli Rosetta II (pET28c), purified (cOmplete His-tag purification resin, EDTA wash, nucleotide-free); not shown: His6, C-terminal, kept
Take B2: the binding result (in test [2]; with untagged RELCH) was “binds” throughout.

B3: GST-Rab11a Q70A, loaded with GTP (natural protein, UniProt P62491 1-216, looked up)
chain: MGTRDDEYDYLFKVVLIGDSGVGKSNLLSRFTRNEFNLESKSTIGVEFATRSIQVDGKTIKAQIWDTAGAERYRAITSAYYRGAVGALLVYDIAKHLTYENVERWLKELRDHADSNIVIMLVGNKSDLRHLRAVPTDEARAFAEKNGLSFIETSALDSTNVEAAFQTILTEIYRIVSQKQMSDRRENDMSPSNNVVPIHVPPTTENKPKVQCCQNI
notes: Rab11a; GTP-locked mutant Q70A; the pFAT2 His-GST-Rab constructs were made as in Haas et al., 2005 and Yoshimura et al., 2007; also called GTP-loaded Rab11a; GST-Rab11-GTP; source: E. coli Rosetta II (pFAT2), purified (Ni-NTA agarose); not shown: GST, N-terminal, kept
As for B3, the binding result with His-RELCH [3] is reported as “binds”.
